Two molecules from US6383484 can be followed below.

By Kd is commonly meant the equilibrium constant for the complex coming apart. Higher therefore signals weaker binding. The koff is the first-order rate constant of dissociation. Read a high koff as fast dissociation. A word on the kon: it is a measure of how fast the partners come together. Low readings indicate slow association, high ones fast association.

Assay [1] has as its target VEGF-DΔNΔC (human VEGF-D residues 93 to 201, FLAG-tagged at the N-terminus) (human) (UniProt O43915). Nature of the assay: SPR (BIAcore 3000), antibody immobilized, human VEGF-DΔNΔC flowed at 41-689 nM, 1:1 Langmuir model. In general terms: SPR reads the build-up and loss of mass on a sensor chip optically.
Assay [2] has the same target. Nature of the assay: cell-based or functional assay.
The target of assay [3] is T1, chimeric protein consisting of the extracellular domain of human VEGFR-1 and the Fc portion of human IgG (human, UniProt P17948 27-758).
T1 construct: extracellular domain; also called VEGFR-1/Ig; not shown: Fc portion of human IgG
Nature of the assay: plate receptor-binding assay, VEGFR-1/Ig coated, detection with biotinylated M2.

T1 sequence (P17948 27-758, change not shown): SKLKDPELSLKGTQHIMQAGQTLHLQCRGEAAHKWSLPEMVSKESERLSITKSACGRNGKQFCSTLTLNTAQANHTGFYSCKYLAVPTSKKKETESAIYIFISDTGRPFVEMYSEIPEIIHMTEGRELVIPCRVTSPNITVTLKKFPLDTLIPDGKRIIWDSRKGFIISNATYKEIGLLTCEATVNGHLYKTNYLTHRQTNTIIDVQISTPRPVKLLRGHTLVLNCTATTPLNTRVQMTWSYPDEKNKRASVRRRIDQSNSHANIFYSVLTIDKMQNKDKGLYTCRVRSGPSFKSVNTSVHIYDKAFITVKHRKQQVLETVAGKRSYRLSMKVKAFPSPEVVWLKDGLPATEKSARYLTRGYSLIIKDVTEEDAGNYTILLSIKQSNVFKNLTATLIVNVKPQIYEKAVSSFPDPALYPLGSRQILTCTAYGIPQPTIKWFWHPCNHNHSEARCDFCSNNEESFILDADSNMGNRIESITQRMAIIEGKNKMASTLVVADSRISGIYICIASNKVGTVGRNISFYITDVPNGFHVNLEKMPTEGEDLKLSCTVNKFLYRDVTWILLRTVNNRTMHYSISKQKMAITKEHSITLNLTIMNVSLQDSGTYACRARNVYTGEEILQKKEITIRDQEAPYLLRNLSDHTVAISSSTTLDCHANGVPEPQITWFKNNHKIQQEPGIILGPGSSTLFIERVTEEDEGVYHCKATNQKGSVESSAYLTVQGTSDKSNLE

Regarding monoclonal antibody 4E10, in assay [1], the Kd turned out to be 0.0571 µM, the koff was 0.00445 s⁻¹ and the kon was found to be 78000 M⁻¹ s⁻¹. In assay [2], this molecule returned a response of Ba/F3-NYK-EpoR cells to VEGF-D?N?C (3H-thymidine incorporation) of 80 µg/mL.

B1: VEGF-DΔNΔC (human VEGF-D residues 93 to 201, FLAG-tagged at the N-terminus) (ligand)
chain: FYDIETLKVIDEEWQRTQCSPRETCVEVASELGKSTNTFFKPPCVNVFRCGGCCNEESLICMNTSTSYISKQLFEISVPLTSVPELVPVKVANHTGCKCLPTAPRHPYS
notes: also called VEGF-D?N?C; human VEGF-D?N?C; not shown: FLAG octapeptide (Sigma) at the N-terminus; any vector-de
Take B1: the binding result in assay [3] was “no binding (tested: 7.3 µg/ml VEGF-DΔNΔC)”.
